Results taken from patent US7001748.

T1: acyl-ACP4(4) adduct 4b ((2R,3S)-diketide on ACP4(4)), Q03132
T1 chain: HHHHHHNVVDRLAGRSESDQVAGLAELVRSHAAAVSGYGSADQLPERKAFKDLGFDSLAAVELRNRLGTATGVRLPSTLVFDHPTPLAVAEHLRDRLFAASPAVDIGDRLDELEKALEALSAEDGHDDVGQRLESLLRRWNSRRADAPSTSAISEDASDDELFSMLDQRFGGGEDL

T2: acyl-ACP4(4) adduct 4c ((2S,3S)-diketide on ACP4(4)), Q03132
T2 chain: T1 chain

T3: acyl-ACP4(4) adduct 4a ((2S,3R)-diketide on ACP4(4)), Q03132
T3 chain: T1 chain

T4: acyl-ACP4(4) adduct 4d ((2R,3R)-diketide on ACP4(4)), Q03132
T4 chain: T1 chain

B1: (5)M3+TE (derivative of M3+TE where the natural N-terminal linker has been replaced with the N-terminal linker of module 5 of DEBS; plasmid pST132) (protein)
chain: MSGDNGMTEEKLRRYLKRTVTELDSVTARLREVEHRAGEPIAIVSMACRLPGGVNTPQRLWELLREGGETLSGFPTDRGWDLARLHHPDPDNPGTSYVDKGGFLDDAAGFDAEFFGVSPREAAAMDPQQRLLLETSWELVENAGIDPHSLRGTATGVFLGVAKFGYGEDTAAAEDVEGYSVTGVAPAVASGRISYTMGLEGPSISVDTACSSSLVALHLAVESLRKGESSMAVVGGAAVMATPGVFVDFSRQRALAADGRSKAFGAGADGFGFSEGVTLVLLERLSEARRNGHEVLAVVRGSALNQDGASNGLSAPSGPAQRRVIRQALESCGLEPGDVDAVEAHGTGTALGDPIEANALLDTYGRDRDADRPLWLGSVKSNIGHTQAAAGVTGLLKVVLALRNGELPATLHVEEPTPHVDWSSGGVALLAGNQPWRRGERTRRARVSAFGISGTNAHVIVEEAPEREHRETTAHDGRPVPLVVSARTTAALRAQAAQIAELLERPDADLAGVGLGLATTRARHEHRAAVVASTREEAVRGLREIAAGAATADAVVEGVTEVDGRNVVFLFPGQGSQWAGMGAELLSSSPVFAGKIRACDESMAPMQDWKVSDVLRQAPGAPGLDRVDVVQPVLFAVMVSLAELWRSYGVEPAAVVGHSQGEIAAAHVAGALTLEDAAKLVVGRSRLMRSLSGEGGMAAVALGEAAVRERLRPWQDRLSVAAVNGPRSVVVSGEPGALRAFSEDCAAEGIRVRDIDVDYASHSPQIERVREELLETTGDIAPRPARVTFHSTVESRSMDGTELDARYWYRNLRETVRFADAVTRLAESGYDAFIEVSPHPVVVQAVEEAVEEADGAEDAVVVGSLHRDGGDLSAFLRSMATAHVSGVDIRWDVALPGAAPFALPTYPFQRKRYWLQPAAPAAASDELAYRVSWTPIEKPESGNLDGDWLVVTPLISPEWTEMLCEAINANGGRALRCEVDTSASRTEMAQAVAQAGTGFRGVLSLLSSDESACRPGVPAGAVGLLTLVQALGDAGVDAPVWCLTQGAVRTPADDDLARPAQTTAHGFAQVAGLELPGRWGGVVDLPESVDDAALRLLVAVLRGGGRAEDHLAVRDGRLHGRRVVRASLPQSGSRSWTPHGTVLVTGAASPVGDQLVRWLADRGAERLVLAGACPGDDLLAAVEEAGASAVVCAQDAAALREALGDEPVTALVHAGTLTNFGSISEVAPEEFAETIAAKTALLAVLDEVLGDRAVEREVYCSSVAGIWGGAGMAAYAAGSAYLDALAEHHRARGRSCTSVAWTPWALPGGAVDDGYLRERGLRSLSADRAMRTWERVLAAGPVSVAVADVDWPVLSEGFAATRPTALFAELAGRGGQAEAEPDSGPTGEPAQRLAGLSPDEQQENLLELVANAVAEVLGHESAAEINVRRAFSELGLDSLNAMALRKRLSASTGLRLPASLVFDHPTVTALAQHLRARLDSGTPAREASSALRDGYRQAGVSGRVRSYLDLLAGLSDFREHFDGSDGFSLDLVDMADGPGEVTVICCAGTAAISGPHEFTRLAGALRGIAPVRAVPQPGYEEGEPLPSSMAAVAAVQADAVIRTQGDKPFVVAGHSAGALMAYALATELLDRGHPPRGVVLIDVYPPGHQDAMNAWLEELTATLFDRETVRMDDTRLTALGAYDRLTGQWRPRETGLPTLLVSAGEPMGPWPDDSWKPTWPFEHDTVAVPGDHFTMVQEHADAIARHIDAWLGGGNSHHHHHH
B2: (5)M2+TE (N-ERL-M2+TE; plasmid pRSG64) (protein)
chain: MSGDNGMTEEKLRRYLKRTVTELDSVTARLREVEHRAGEIAIVGMACRLPGEVDSPERLWELITSGRDSAAEVPDDRGWVPDELMASDAAGTRAHGNFMAGAGDFDAAFFGISPREALAMDPQQRQALETTWEALESAGIPPETLRGSDTGVFVGMSHQGYATGRPRPEDGVDGYLLTGNTASVASGRIAYVLGLEGPALTVDTACSSSLVALHTACGSLRDGDCGLAVAGGVSVMAGPEVFTEFSRQGALSPDGRCKPFSDEADGFGLGEGSAFVVLQRLSDARREGRRVLGVVAGSAVNQDGASNGLSAPSGVAQQRVIRRAWARAGITGADVAVVEAHGTGTRLGDPVEASALLATYGKSRGSSGPVLLGSVKSNIGHAQAAAGVAGVIKVLLGLERGVVPPMLCRGERSGLIDWSSGEIELADGVREWSPAADGVRRAGVSAFGVSGTNAHVIIAEPPEPEPVPQPRRMLPATGVVPVVLSARTGAALRAQAGRLADHLAAHPGIAPADVSWTMARARQHFEERAAVLAADTAEAVHRLRAVADGAVVPGVVTGSASDGGSVFVFPGQGAQWEGMARELLPVPVFAESIAECDAVLSEVAGFSVSEVLEPRPDAPSLERVDVVQPVLFAVMVSLARLWRACGAVPSAVIGHSQGEIAAAVVAGALSLEDGMRVVARRSRAVRAVAGRGSMLSVRGGRSDVEKLLADDSWTGRLEVAAVNGPDAVVVAGDAQAAREFLEYCEGVGIRARAIPVDYASHTAHVEPVRDELVQALAGITPRRAEVPFFSTLTGDFLDGTELDAGYWYRNLRHPVEFHSAVQALTDQGYATFIEVSPHPVLASSVQETLDDAESDAAVLGTLERDAGDADRFLTALADAHTRGVAVDWEAVLGRAGLVDLPGYPFQGKRFWLLPDRTTPRDELDGWFYRVDWTEVPRSEPAALRGRWLVVVPEGHEEDGWTVEVRSALAEAGAEPEVTRGVGGLVGDCAGVVSLLALEGDGAVQTLVLVRELDAEGIDAPLWTVTFGAVDAGSPVARPDQAKLWGLGQVASLERGPRWTGLVDLPHMPDPELRGRLTAVLAGSEDQVAVRADAVRARRLSPAHVTATSEYAVPGGTILVTGGTAGLGAEVARWLAGRGAEHLALVSRRGPDTEGVGDLTAELTRLGARVSVHACDVSSREPVRELVHGLIEQGDVVRGVVHAAGLPQQVAINDMDEAAFDEVVAAKAGGAVHLDELCSDAELFLLFSSGAGVWGSARQGAYAAGNAFLDAFARHRRGRGLPATSVAWGLWAAGGMTGDEEAVSFLRERGVRAMPVPRALAALDRVLASGETAVVVTDVDWPAFAESYTAARPRPLLDRIVTTAPSERAGEPETESLRDRLAGLPRAERTAELVRLVRTSTATVLGHDDPKAVRATTPFKELGFDSLAAVRLRNLLNAATGLRLPSTLVFDHPNASAVAGFLDICCAGTAAISGPHEFTRLAGALRGIAPVRAVPQPGYEEGEPLPSSMAAVAAVQADAVIRTQGDKPFVVAGHSAGALMAYALATELLDRGHPPRGVVLIDVYPPGHQDAMNAWLEELTATLFDRETVRMDDTRLTALGAYDRLTGQWRPRETGLPTLLVSAGEPMGPWPDDSWKPTWPFEHDTVAVPGDHFTMVQEHADAIARHIDAWHHHHHH
B3: M3+TE (module 3 of DEBS with its own N-terminal linker and with the thioesterase fused to the C-terminus; plasmid pRSG34) (protein)
chain: MTDSEKVAEYLRRATLDLRAARQRIRELESDIAIVSMACRLPGGVNTPQRLWELLREGGETLSGFPTDRGWDLARLHHPDPDNPGTSYVDKGGFLDDAAGFDAEFFGVSPREAAAMDPQQRLLLETSWELVENAGIDPHSLRGTATGVFLGVAKFGYGEDTAAAEDVEGYSVTGVAPAVASGRISYTMGLEGPSISVDTACSSSLVALHLAVESLRKGESSMAVVGGAAVMATPGVFVDFSRQRALAADGRSKAFGAGADGFGFSEGVTLVLLERLSEARRNGHEVLAVVRGSALNQDGASNGLSAPSGPAQRRVIRQALESCGLEPGDVDAVEAHGTGTALGDPIEANALLDTYGRDRDADRPLWLGSVKSNIGHTQAAAGVTGLLKVVLALRNGELPATLHVEEPTPHVDWSSGGVALLAGNQPWRRGERTRRARVSAFGISGTNAHVIVEEAPEREHRETTAHDGRPVPLVVSARTTAALRAQAAQIAELLERPDADLAGVGLGLATTRARHEHRAAVVASTREEAVRGLREIAAGAATADAVVEGVTEVDGRNVVFLFPGQGSQWAGMGAELLSSSPVFAGKIRACDESMAPMQDWKVSDVLRQAPGAPGLDRVDVVQPVLFAVMVSLAELWRSYGVEPAAVVGHSQGEIAAAHVAGALTLEDAAKLVVGRSRLMRSLSGEGGMAAVALGEAAVRERLRPWQDRLSVAAVNGPRSVVVSGEPGALRAFSEDCAAEGIRVRDIDVDYASHSPQIERVREELLETTGDIAPRPARVTFHSTVESRSMDGTELDARYWYRNLRETVRFADAVTRLAESGYDAFIEVSPHPVVVQAVEEAVEEADGAEDAVVVGSLHRDGGDLSAFLRSMATAHVSGVDIRWDVALPGAAPFALPTYPFQRKRYWLQPAAPAAASDELAYRVSWTPIEKPESGNLDGDWLVVTPLISPEWTEMLCEAINANGGRALRCEVDTSASRTEMAQAVAQAGTGFRGVLSLLSSDESACRPGVPAGAVGLLTLVQALGDAGVDAPVWCLTQGAVRTPADDDLARPAQTTAHGFAQVAGLELPGRWGGVVDLPESVDDAALRLLVAVLRGGGRAEDHLAVRDGRLHGRRVVRASLPQSGSRSWTPHGTVLVTGAASPVGDQLVRWLADRGAERLVLAGACPGDDLLAAVEEAGASAVVCAQDAAALREALGDEPVTALVHAGTLTNFGSISEVAPEEFAETIAAKTALLAVLDEVLGDRAVEREVYCSSVAGIWGGAGMAAYAAGSAYLDALAEHHRARGRSCTSVAWTPWALPGGAVDDGYLRERGLRSLSADRAMRTWERVLAAGPVSVAVADVDWPVLSEGFAATRPTALFAELAGRGGQAEAEPDSGPTGEPAQRLAGLSPDEQQENLLELVANAVAEVLGHESAAEINVRRAFSELGLDSLNAMALRKRLSASTGLRLPASLVFDHPTVTALAQHLRICCAGTAAISGPHEFTRLAGALRGIAPVRAVPQPGYEEGEPLPSSMAAVAAVQADAVIRTQGDKPFVVAGHSAGALMAYALATELLDRGHPPRGVVLIDVYPPGHQDAMNAWLEELTATLFDRETVRMDDTRLTALGAYDRLTGQWRPRETGLPTLLVSAGEPMGPWPDDSWKPTWPFEHDTVAVPGDHFTMVQEHADAIARHIDAWHHHHHH

Experiments:
[1] = biological target: T1, acyl-ACP4(4) adduct 4b …
[2] = biological target: T2, acyl-ACP4(4) adduct 4c …
[3] = biological target: T3, acyl-ACP4(4) adduct 4a …
[4] = biological target: T4, acyl-ACP4(4) adduct 4d …

Protein	diketide incorporation from acyl-ACP (product formation) [1]	diketide incorporation from acyl-ACP (product formation) [2]	diketide incorporation from acyl-ACP (product formation) [3]	diketide incorporation from acyl-ACP (product formation) [4]	diketide incorporation from acyl-ACP (triketide lactone formation) [1]	diketide incorporation from acyl-ACP (triketide lactone formation) [2]	diketide incorporation from acyl-ACP (triketide lactone formation) [3]	diketide incorporation from acyl-ACP (triketide lactone formation) [4]
B1	all four acyl-ACP adducts were observed to be substrates for (5)M3+TE	all four acyl-ACP adducts were observed to be substrates for (5)M3+TE	all four acyl-ACP adducts were observed to be substrates for (5)M3+TE	all four acyl-ACP adducts were observed to be substrates for (5)M3+TE				
B2					Both 4a and 4b were accepted and extended by all three modules	4c and 4d were also substrates for the three modules	Both 4a and 4b were accepted and extended by all three modules	4c and 4d were also substrates for the three modules
B3	no product formation was observed from the incubation of any of the acyl-ACP adducts with (3)M3+TE	no product formation was observed from the incubation of any of the acyl-ACP adducts with (3)M3+TE	no product formation was observed from the incubation of any of the acyl-ACP adducts with (3)M3+TE	no product formation was observed from the incubation of any of the acyl-ACP adducts with (3)M3+TE				
